Source: patent US20050095613

Columns and labels:
[1] = target: T1, DQMD peptide substrate
T1 chain: DQMD

[2] = target: T2, LEHD peptide substrate
T2 chain: LEHD

[3] = target: T3, WEHD peptide substrate
T3 chain: WEHD

[4] = target: T4, DEVD peptide substrate
T4 chain: DEVD

B1: human CARD-13 (protein)
chain: MADKKPSKEDPVNMVKLLARNVLDGILDDLMENNVLNTEELRNLGKGLNFMVNNAGNLVDNITEKAQMAGKILKDRLLSHPKQLSLEYQRESEDQESEESSASSSSSTESEEENEESKDEERAASAHSMAVPPTGLPRWWQAASKMAADHFQDGGEPRVLCPGVPGLTDSKERNLGPCAPLEIQGAQPSGRLKLCPHAHFRELKTKRADEIYPVMEKEGRTRLALIICNKEFHYLLNRNGSELDLLGMQDLLETLGYSVVIEENLTAQEMETALRQFAARPEHQSSDSTSLVFMSHGILNGICGTKHWDQEPDVLHDDTIFEIFNNRNCRSLRDKPKVIIMQACRGSGAGIVWFTTDSGKASAETHGQLLQSSICNDAVTKAHVEKDFIAFKSSTPHNVSWRHEISGSVFISQIIYYFKEYSWSHHLEEIFRKVQRSFETPNVVTQLPTIERLSMTRYFYLFPGN
How did the “cleavage of peptide substrate (caspase activity)” value (from here on “cleavage of peptide substrate”) [1] turn out when B1 was run?
Its value is “it did not cleave DEVD peptide substrate or DQMD peptide substrate”.

What about the “cleavage of peptide substrate” value [2] of the same protein?
Its value is “It also had some activity against LEHD peptide substrate”.

And the “cleavage of peptide substrate” value [3]?
Its value is “This purified CARD-13 cleaved WEHD peptide substrates, as does caspase-1”.

And the “cleavage of peptide substrate” value [4]?
Its value is “it did not cleave DEVD peptide substrate or DQMD peptide substrate”.
